Measured values taken from patent US20260049134A1 (UNIVERSITY OF FLORIDA RESEARCH FOUNDATION, published 2026).

Assays:
[1] = target: T1, PTPRG-Fc (ECD of human PTPRG, aa 20-736, fused to human Fc gamma 1) (human, UniProt P23470 20-736); assay: ELISA on coated PTPRG-Fc, 150 ng IgG1; None 0.117
T1 construct: Made in-house in Expi293 cells; Used in ELISA and SPR; also called recombinant PTPRG-Fc; PTRPG; not shown: human IgG1 Fc (Fc gamma 1) after the hinge
T1 sequence: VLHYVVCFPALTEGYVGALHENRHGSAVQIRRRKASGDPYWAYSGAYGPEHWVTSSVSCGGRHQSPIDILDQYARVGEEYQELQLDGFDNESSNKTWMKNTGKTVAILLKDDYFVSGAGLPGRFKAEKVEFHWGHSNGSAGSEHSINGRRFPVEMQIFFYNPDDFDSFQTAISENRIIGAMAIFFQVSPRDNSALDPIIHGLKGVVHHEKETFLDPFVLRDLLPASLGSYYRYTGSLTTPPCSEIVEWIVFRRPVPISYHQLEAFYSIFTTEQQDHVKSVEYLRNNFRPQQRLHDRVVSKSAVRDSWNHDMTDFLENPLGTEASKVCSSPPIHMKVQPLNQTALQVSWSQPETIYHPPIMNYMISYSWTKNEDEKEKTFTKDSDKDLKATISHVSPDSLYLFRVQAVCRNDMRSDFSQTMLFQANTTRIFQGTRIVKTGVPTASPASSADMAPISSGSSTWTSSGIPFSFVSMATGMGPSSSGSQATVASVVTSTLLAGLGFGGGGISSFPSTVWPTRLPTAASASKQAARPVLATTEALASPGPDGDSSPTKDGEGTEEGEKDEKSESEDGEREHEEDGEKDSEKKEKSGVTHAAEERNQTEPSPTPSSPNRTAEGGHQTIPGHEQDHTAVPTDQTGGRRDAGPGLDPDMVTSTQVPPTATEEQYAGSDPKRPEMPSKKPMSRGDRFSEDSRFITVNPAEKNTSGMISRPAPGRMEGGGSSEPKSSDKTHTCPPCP
Protocol: (§1) Recombinant purified ECDs (50-150 ng) of each putative target protein were coated, incubated with 150 ng of the indicated primary antibody, and binding was detected using a peroxidase-conjugated anti-human Fab secondary antibody. Heatmap represents averages of technical triplicates. (8B) Target validation via siRNA knockdown. H929 cells were transfected with siRNA pools targeting the putative antibody targets ICAM1, CADM1, and PTPRG. Cells were then subjected to cognate IgG binding analysis via flow cytometry. (NT, non-targeting siRNA).
(§2) ELISA ELISA was conducted as described previously. Briefly, 50-150 ng of antigen was coated overnight in half-area 96-well plates at 4° C., blocked with 3% BSA at 37° C. for 1 h, and 150 ng of chimeric rabbit/human IgG1 was added, incubating for 2 h at 37° C. […] After incubating at 37° C. for 15 min-1 h (depending on intensity of controls), data were acquired using a SpectraMax M5 plate reader (Molecular Devices).

APP = target: T2, APP; assay: ELISA on coated APP-His, 150 ng IgG1; None 0.092
T2 construct: His-tagged; coated protein in the ELISA; also called APP-His (Acro Biosystems)
Protocol: as §1, §2

SELL (L-Selectin) = target: T3, SELL (L-Selectin); assay: ELISA on coated SELL-Fc-His, 150 ng IgG1; None 0.096
T3 construct: coated protein in the ELISA; also called SELL-Fc-His (R&D Systems)
T3 chain: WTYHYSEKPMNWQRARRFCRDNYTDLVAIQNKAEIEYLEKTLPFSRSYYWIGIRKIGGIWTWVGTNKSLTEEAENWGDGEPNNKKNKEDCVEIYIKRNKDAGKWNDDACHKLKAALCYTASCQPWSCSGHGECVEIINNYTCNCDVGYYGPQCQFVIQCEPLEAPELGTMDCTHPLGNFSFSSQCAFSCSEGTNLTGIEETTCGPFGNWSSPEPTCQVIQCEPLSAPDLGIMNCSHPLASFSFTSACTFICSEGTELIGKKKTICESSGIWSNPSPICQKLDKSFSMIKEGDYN
Protocol: as §1, §2

[2] = target: T4, CADM1-His (Acro Biosystems) (human, UniProt Q9BY67 45-374); assay: ELISA on coated CADM1-His, 150 ng IgG1; None 0.059
T4 construct: Bought; also called CADM1/IGSF4A; not shown: His tag of the bought protein
T4 sequence: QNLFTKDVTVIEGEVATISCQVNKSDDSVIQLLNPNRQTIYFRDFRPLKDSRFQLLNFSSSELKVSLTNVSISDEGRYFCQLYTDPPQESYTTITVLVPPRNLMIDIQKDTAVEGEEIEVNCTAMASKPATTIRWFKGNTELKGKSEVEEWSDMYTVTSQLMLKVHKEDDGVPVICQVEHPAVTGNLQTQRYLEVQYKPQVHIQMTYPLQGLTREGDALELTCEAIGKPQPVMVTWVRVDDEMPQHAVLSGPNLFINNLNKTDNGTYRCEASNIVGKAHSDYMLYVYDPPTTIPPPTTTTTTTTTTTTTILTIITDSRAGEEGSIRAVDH
Protocol: as §1, §2

HHLA2 (B7-H7) = target: T5, HHLA2 (B7-H7); assay: ELISA on coated HHLA2-Fc, 150 ng IgG1; None 0.087
T5 construct: coated protein in the ELISA; also called HHLA2-Fc (R&D Systems)
T5 chain: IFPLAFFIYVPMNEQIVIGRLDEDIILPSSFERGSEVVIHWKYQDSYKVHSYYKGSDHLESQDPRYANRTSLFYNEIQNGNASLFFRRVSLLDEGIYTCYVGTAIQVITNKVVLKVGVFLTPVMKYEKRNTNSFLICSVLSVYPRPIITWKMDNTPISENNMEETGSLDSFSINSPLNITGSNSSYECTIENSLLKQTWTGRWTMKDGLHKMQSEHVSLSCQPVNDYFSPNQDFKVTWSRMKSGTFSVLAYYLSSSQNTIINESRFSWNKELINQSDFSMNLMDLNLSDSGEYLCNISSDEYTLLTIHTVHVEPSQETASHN
Protocol: as §1, §2

Binder	ELISA Absorbance (405 nm-570 nm) [1]	ELISA Absorbance (405 nm-570 nm) (APP)	ELISA Absorbance (405 nm-570 nm) (SELL (L-Selectin))	ELISA Absorbance (405 nm-570 nm) [2]	ELISA Absorbance (405 nm-570 nm) (HHLA2 (B7-H7))
HW-8 chimeric rabbit-human IgG1 LA/LA/PG (antibody, V domains shown, Fc-silenced (L234A/L235A/P329G) IgG1, kappa; Alexa Fluor 647-labeled in single-step flow cytometry; Cluster C-45) VH: QSLEESGGRLVTPGTPLTLTCTVSGFSLSSYAMSWVRQAPGKGLEWIGAISTGGSTTYASWAKGRFTISKTSSTTVDLKMTSLTTEDTATYFCVRHFRLWGPGTLVTISS VL: QVLTQTPSSVSAAVGGTVTIKCQASQSIGSALAWFQQKPGQRPKLLIYRASNLASGVPSRFKGSGSGTEFALTISGVQREDAATYYCLGGAAAVWAFGAGTNVEIKR	0.069	0.071	0.074	0.05	0.073
HW-42 chimeric rabbit-human IgG1 LA/LA/PG (antibody, V domains shown, Fc-silenced (L234A/L235A/P329G) IgG1, lambda; Alexa Fluor 647-labeled in single-step flow cytometry; Cluster C-1) VH: QSVKESEGGLFKPADTLTLTCTVSGFSLSSNEISWVRQAPGEGLEYIGIIDTGGRAYYAVWARSRSTITRNTNLNTVTLKMTSLTAADTATYFCARGGVDTEWYAFSSWGPGTLVTVPS VL: SFVLTQPASVQVNLGQTVSLTCTADTLSRRYASWYQQKPGQAPVLLIFRDTSRPSGVPDRFSGSSSGDTATLTISGAQAGDEADYYCATSDGSGSNYQYVFGGGTQLTVTG	0.341	0.087	0.103	0.061	0.097
HW-70 chimeric rabbit-human IgG1 LA/LA/PG (antibody, V domains shown, Fc-silenced (L234A/L235A/P329G) IgG1, lambda; Alexa Fluor 647-labeled in single-step flow cytometry; Cluster C-1) VH: QSLEESGGRLVTPGTPLTLTCTVSGFSLSSNAMSWVRQAPGKGLEWIGTIDGYGYTYYASWAKGRFTVSKTSTTVDLKITSPTTEDTATYFCAREIYLGSNFWGPGTLVTISS VL: SFVLTQPASVQVNLGQTVSLTCTADTLSRRYASWYQQKPGQAPVLLIYRDTSRPSGVPDRFSGSSSGNTATLTISGAQAGDEADYYCATADGSGSSYQFVFGGGTQLTVTG	0.29	0.089	0.09	0.053	0.088
HW-45 chimeric rabbit-human IgG1 LA/LA/PG (antibody, V domains shown, Fc-silenced (L234A/L235A/P329G) IgG1, lambda; Alexa Fluor 647-labeled in single-step flow cytometry; Prototype of cluster C-45) VH: QKQLVESGGRLVTPGTPLTLTCTVSGFSLSSYAMGWFRQAPGKGLEWIGIINSYGSTYYASWAKGRFTISKTSTTVDLKITSPTTEDTATYFCGRRIGSARFDPWGPGTLVTVSS VL: SFVLTQPASVQVNLGQTVSLTCTADTLSRSYASWYQQKPGQAPVLLIYRDTRRPSGVPDRFSGSSSGNTATLTISGAQAGDEADYYCATSDGSGSSYRLVFGGGTQLTVTG	–	0.233	–	–	–
HW-17 chimeric rabbit-human IgG1 LA/LA/PG (antibody, V domains shown, Fc-silenced (L234A/L235A/P329G) IgG1, lambda; Alexa Fluor 647-labeled in single-step flow cytometry; Cluster C-1) VH: QSLGESRGRLVTPDETLTLTCTVSGIDLSSNAMSWVRQAPGEGLEWIGTINTGGRAYYASWAKGRFTISRTSTTVDLKMTSLTTEDTATYFCARERYSDGRAYDIWGPGTLVTISS VL: SFVLTQPASVQVNLGQTVSLTCTADTLSRRYASWYQQKPGQAPVLLIYTDSNRPSGIPDRFSGSSSGNTATLTISGAQAGDEADYYCATDDGSGSIYQYVFGGGTQLTVTG	0.756	0.062	0.072	0.048	0.076
HW-25 chimeric rabbit-human IgG1 LA/LA/PG (antibody, V domains shown, Fc-silenced (L234A/L235A/P329G) IgG1, lambda; Alexa Fluor 647-labeled in single-step flow cytometry; Cluster C-1) VH: QSLEESGGRLVTPGTPLTLTCTVSGFSLSSYAMGWVRQAPGKGLEWIGIIDSRGSTYYATWAKGRFTISKTSTTVDLKITSPTTEDTATYFCAREDSYYYDSFNLWGPGTLVTVSS VL: SFVLTQPASVQVNLGQTVSLTCTADTLSRRYASWYQQKPGQAPVLLIYRDTSRPSGVPDRFSGSSSGNTATLTISGAQAGDEADYYCATSDGSGSSYQCVFGGGTQLTVTG	0.784	0.066	0.067	0.045	0.066
HW-1 chimeric rabbit-human IgG1 LA/LA/PG (antibody, V domains shown, Fc-silenced (L234A/L235A/P329G) IgG1, lambda; Alexa Fluor 647-labeled in single-step flow cytometry; Prototype of cluster C-1) VH: QSLEESGGGLFKPTDTLTLTCTASGFSLGSSYAISWVRQAPGKELEWIGTIDSGRAYYARWAKSRSTITRNTNENTVTLKMTSLTAADTATYFCARDLIPTYSQDIWGPGTLVTISS VL: SFVLTQPASVQVNLGQTVSLTCTADTLSRRYASWYQQKPGQAPVLLIYRDTSRPSGVPDRFSGSSSGNTATLTISGAQAGDEADYYCATSDGSGNSYQYVFGGGTQLTVTS	0.756	0.071	0.078	0.053	0.075
HW-28 chimeric rabbit-human IgG1 LA/LA/PG (antibody, V domains shown, Fc-silenced (L234A/L235A/P329G) IgG1, lambda; Alexa Fluor 647-labeled in single-step flow cytometry; Cluster C-45) VH: QKQLVESGGRLVTPGTPLTLTCTASGFSLSSNAMSWVRQAPGEGLQWIGTISSGGSTYYASWAKGRFTISKTSTTVTLKMTSLTTEDTATYFCARGADLHRLWGPGTLVTVSS VL: SFVLTQPASVQVNLGQTVSLTCTGKPLSRSFASWYQQKPGQAPVLVIYRDTSRPSGVPDRFSGSSSGNTATLTISGAQAGDEADYYCATSDGSGSSYQYVFGGGTQLTVTG	0.121	0.144	–	–	0.122
HW-16 chimeric rabbit-human IgG1 LA/LA/PG (antibody, V domains shown, Fc-silenced (L234A/L235A/P329G) IgG1, kappa; Alexa Fluor 647-labeled in single-step flow cytometry; Cluster C-45) VH: QSLEESGGRLVTPGTPLTLTCTASGFSLSSYAMSWVRQAPGKGLEWIGTMPTGGGTYYASWAKGRFTISKTSTTVDLQITSPTTEDTATYFCAKHWNIWGPGTLVTISS VL: DIVLTQTPSSTSTAVGDTVTINCRASQSIGRNLAWFQQKPGQPPKLLIYRASNLASGVPSRFKGSGSRTQFTLTISGVQREDAATYYCLGSYSSSDTAFGGGTELEILR	–	0.225	0.177	0.067	0.092
TH9-0022 (antibody, human IgG1, kappa, L234A L235A, V domains shown, also called TH9-022; negative control) VH: QSLEESGGRLVTPGTPLTLTCTVSGFSLSSYAMNWVRQAPGKGLEWIGIINSYGSTYYASWAKGRFTISKTSTTVDLKITSPTTEDTATYFCARVTYDSYGYGYAPYGMDLWGPGTLVTVSS VL: LVMTQTPSSTSNAVGGTVTIKCQASQSIGNVLAWYQQKPGQPPKLLIYAASTLASGVPSRVGGSRSGTEYTLTISGVQREDAATYYCLGSDSDSDIAFGGGTELEILR	0.106	0.082	0.081	0.055	0.086
